In paper PMC4409382, “Structural Analysis of the 14-3-3ζ/Chibby Interaction Involved in Wnt/β-Catenin Signaling” (PLoS ONE, 2015):
Positions count from the first letter of the chain named. Names and notes keep the numbering of the source. Square brackets hold non-standard residues; d marks the D form. Ends that are not written are not given here. pS = N[C@@H](COP(=O)(O)O)C(=O)O

T1: 14-3-3ζΔC12 (human, UniProt P63104 1-233)
T1 construct: N-terminal glycine retained after TEV cleavage of the His tag; 14-3-3ζ, human, full-length construct with the 12 C-terminal residues deleted; Unlabelled for ITC; 15N, 13C, 2H labelled for the NMR titrations; also called 14-3-3ζ with the C-terminal 12 residues removed; source: E. coli BL21 (DE3) pLysS, purified (Ni Sepharose, TEV cleavage, second Ni Sepharose pass); not shown: His tag, N-terminal, …
T1 sequence: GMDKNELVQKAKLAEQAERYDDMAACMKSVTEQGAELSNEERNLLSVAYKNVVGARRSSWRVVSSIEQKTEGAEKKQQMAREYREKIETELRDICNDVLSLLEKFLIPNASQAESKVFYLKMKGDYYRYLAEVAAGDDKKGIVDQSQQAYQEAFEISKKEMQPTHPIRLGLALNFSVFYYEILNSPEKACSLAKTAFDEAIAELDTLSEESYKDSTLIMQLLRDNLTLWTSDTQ

T2: 14-3-3ζ K49A (human, UniProt P63104 1-245, K49A)
T2 construct: N-terminal glycine retained after TEV cleavage of the His tag; 14-3-3ζ, human, with the K49A mutation introduced into 14-3-3ζ; source: purified by Ni Sepharose with TEV cleavage as all 14-3-3ζ constructs; not shown: His tag, N-terminal, cleaved
T2 sequence: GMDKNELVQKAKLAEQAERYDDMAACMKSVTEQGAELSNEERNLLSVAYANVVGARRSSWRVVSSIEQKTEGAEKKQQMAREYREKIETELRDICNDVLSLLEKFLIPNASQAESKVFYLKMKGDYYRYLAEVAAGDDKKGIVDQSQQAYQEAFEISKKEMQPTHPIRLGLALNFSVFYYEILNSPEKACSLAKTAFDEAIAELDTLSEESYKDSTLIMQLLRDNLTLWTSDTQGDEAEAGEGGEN

T3: 14-3-3ζ (human, UniProt P63104 1-245)
T3 construct: N-terminal glycine retained after TEV cleavage of the His tag; 14-3-3 zeta, human, ORF purchased from GeneCopoeia, full-length construct; Dimer (~56 kDa); the stoichiometry n counts on the 14-3-3 monomer; also called full-length 14-3-3ζ; source: E. coli BL21 (DE3) pLysS, purified (Ni Sepharose, TEV cleavage, second Ni Sepharose pass); not shown: His tag, N-terminal, cleaved
T3 sequence: T2 sequence with A50K

T4: Chibby 7-mer S22P (Homo sapiens, UniProt Q9Y3M2)
T4 chain: RKSASLP

T5: Chibby 18-mer (Homo sapiens, UniProt Q9Y3M2)
T5 chain: KTPPRKSA[pS]LSNLHSLDR

T6: Chibby 13-mer S22P (Homo sapiens, UniProt Q9Y3M2)
T6 chain: KTPPRKSASLPNL

T7: Chibby 7-mer (Homo sapiens, UniProt Q9Y3M2)
T7 chain: Ac-RKSA[pS]LS-NH2

T8: Chibby 13-mer (Homo sapiens, UniProt Q9Y3M2)
T8 chain: KTPPRKSA[pS]LSNL

T9: Chibby 18-mer L24A (Homo sapiens, UniProt Q9Y3M2)
T9 chain: KTPPRKSASLSNAHSLDR

T10: Chibby 11-mer (Homo sapiens, UniProt Q9Y3M2)
T10 chain: H-KTPPRKSA[pS]LS-NH2

T11: 14-3-3ζ K49A (human, UniProt P63104 1-245, K49A)
T11 construct: N-terminal glycine retained after TEV cleavage of the His tag; 14-3-3 zeta, human, with the K49A mutation introduced into 14-3-3ζ (the full-length construct); they say that all 14-3-3ζ constructs were purified in the same way; source: E. coli, purified (Ni Sepharose, TEV cleavage, second Ni Sepharose pass); not shown: His tag, N-terminal, cleaved
T11 sequence: T2 sequence

T12: 14-3-3ζΔC12 (human, UniProt P63104 1-233)
T12 construct: N-terminal glycine retained after TEV cleavage of the His tag; 14-3-3 zeta, human, full-length 14-3-3ζ with the 12 C-terminal residues deleted; source: E. coli BL21 (DE3) pLysS, purified (Ni Sepharose, TEV cleavage, second Ni Sepharose pass); not shown: His tag, N-terminal, cleaved
T12 sequence: T1 sequence

B1: pCby 13-mer (peptide)
peptide: KTPPRKSA[pS]LSNL
notes: Chibby (Cby), human, residues 12-24; free NH2 and COOH ends; also called phosphorylated Cby peptide; source: synthetic peptide, bought: GenScript USA Inc
B2: pCby 18-mer (peptide)
peptide: KTPPRKSA[pS]LSNLHSLDR
notes: Chibby (Cby), human, residues 12-29; free NH2 and COOH ends; also called Cby 18-mer WT; WT Cby 18-mer; source: synthetic peptide, bought: GenScript USA Inc
B3: pCby S22P 18-mer (peptide)
peptide: KTPPRKSA[pS]LPNLHSLDR
notes: Chibby (Cby), human, residues 12-29 with S22P; free NH2 and COOH ends; also called Cby 18-mer S22P; source: synthetic peptide, bought: TUFTS University Core Facility
B4: pCby S22P 13-mer (peptide)
peptide: KTPPRKSA[pS]LPNL
notes: Chibby (Cby), human, residues 12-24 with S22P; also called Cby 13-mer S22P; source: synthetic peptide, bought: TUFTS University Core Facility
B5: pCby 7-mer (peptide)
peptide: Ac-RKSA[pS]LS-NH2
SMILES: CC(=O)N[C@@H](CCCNC(=N)N)C(=O)N[C@@H](CCCCN)C(=O)N[C@@H](CO)C(=O)N[C@@H](C)C(=O)N[C@@H](COP(=O)(O)O)C(=O)N[C@@H](CC(C)C)C(=O)N[C@@H](CO)C(N)=O
notes: Chibby (Cby), human, residues 16-22; also called 16RKSA(pS)LS22; source: synthetic peptide, bought: TUFTS University Core Facility
B6: pCby S22P 7-mer (peptide)
peptide: Ac-RKSA[pS]LP-NH2
SMILES: CC(=O)N[C@@H](CCCNC(=N)N)C(=O)N[C@@H](CCCCN)C(=O)N[C@@H](CO)C(=O)N[C@@H](C)C(=O)N[C@@H](COP(=O)(O)O)C(=O)N[C@@H](CC(C)C)C(=O)N1CCC[C@H]1C(N)=O
notes: Chibby (Cby), human, residues 16-22 with S22P; also called Cby 7-mer S22P; 16RKSA(pS)LP22; source: synthetic peptide, bought: TUFTS University Core Facility
B7: 14-3-3ζ (protein)
chain: MDKNELVQKAKLAEQAERYDDMAACMKSVTEQGAELSNEERNLLSVAYKNVVGARRSSWRVVSSIEQKTEGAEKKQQMAREYREKIETELRDICNDVLSLLEKFLIPNASQAESKVFYLKMKGDYYRYLAEVAAGDDKKGIVDQSQQAYQEAFEISKKEMQPTHPIRLGLALNFSVFYYEILNSPEKACSLAKTAFDEAIAELDTLSEESYKDSTLIMQLLRDNLTLWTSDTQGDEAEAGEGGEN
B8: pCby 11-mer (peptide)
peptide: KTPPRKSA[pS]LS-NH2
modifications: N-terminus assumed
SMILES: CC(C)C[C@H](NC(=O)[C@H](COP(=O)(O)O)NC(=O)[C@H](C)NC(=O)[C@H](CO)NC(=O)[C@H](CCCCN)NC(=O)[C@H](CCCNC(=N)N)NC(=O)[C@@H]1CCCN1C(=O)[C@@H]1CCCN1C(=O)[C@@H](NC(=O)[C@@H](N)CCCCN)[C@@H](C)O)C(=O)N[C@@H](CO)C(N)=O
notes: Chibby (Cby), human, residues 12-22; source: synthetic peptide, bought: TUFTS University Core Facility
B9: pCby 18-mer (peptide)
peptide: KTPPRKSA[pS]LSNLHSLDR
notes: Chibby (Cby), human, residues 12-29; also called Cby 18-mer WT; source: synthetic peptide, bought: GenScript USA Inc
B10: Cby 18-mer L24A (peptide)
peptide: KTPPRKSA[pS]LSNAHSLDR
notes: Chibby (Cby), human, residues 12-29 with L24A; also called Cby L24A 18-mer; source: synthetic peptide, bought (GenScript USA Inc. or TUFTS University Core Facility)
B11: pCby S22P 18-mer (peptide)
peptide: KTPPRKSA[pS]LPNLHSLDR
notes: Chibby (Cby), human, residues 12-29 with S22P; also called Cby 18-mer S22P; source: synthetic peptide, bought: TUFTS University Core Facility
B12: 14-3-3ζ (human, full-length) (natural protein)
chain: T2 sequence with A50K
notes: N-terminal glycine retained after TEV cleavage of the His tag; 14-3-3ζ, human, ORF bought from GeneCopoeia, in Gateway pDEST17; full-length; Dimer in the crystal; the ITC stoichiometry counts on the 14-3-3 monomer; also called WT 14-3-3ζ; source: E. coli BL21 (DE3) pLysS, purified (Ni Sepharose, TEV cleavage, second Ni Sepharose pass); not shown: His tag, N-terminal, cleaved
B13: pCby 13-mer (peptide)
peptide: KTPPRKSA[pS]LSNL
notes: Chibby (Cby), human, residues 12-24; source: synthetic peptide, bought: GenScript USA Inc

Legend:
14-3-3ζΔC12 [1] = molecular target: T1, 14-3-3ζΔC12; experiment: ITC; VP-ITC, 25°C; ~1-2 mM peptide titrated in 5 uL aliquots into ~100-200 uM 14-3-3ζ in the cell; 50 mM sodium phosphate, 100 mM NaCl, 1 mM DTT, pH 6.8; one-site model; in duplicate; conditions: both partners purified
[2] = molecular target: B12; experiment: as above; conditions: both partners purified
14-3-3ζ K49A [3] = molecular target: T2, 14-3-3ζ K49A; experiment: as above; conditions: both partners purified
14-3-3ζ = molecular target: T3, 14-3-3ζ; experiment: ITC; duplicate set of titrations; 5 uL aliquots of ~1-2 mM peptide titrated into the 1.4 mL cell with ~100-200 uM 14-3-3ζ; 25 °C; 50 mM sodium phosphate, 100 mM NaCl, 1 mM DTT, pH 6.8; one-site model; n per 14-3-3 monomer; conditions: both partners purified
Chibby 7-mer S22P = molecular target: T4, Chibby 7-mer S22P; experiment: ITC
Chibby 18-mer = molecular target: T5, Chibby 18-mer; experiment: ITC
Chibby 13-mer S22P = molecular target: T6, Chibby 13-mer S22P; experiment: ITC
Chibby 7-mer = molecular target: T7, Chibby 7-mer; experiment: ITC
Chibby 13-mer = molecular target: T8, Chibby 13-mer; experiment: ITC
Chibby 18-mer L24A = molecular target: T9, Chibby 18-mer L24A; experiment: ITC
Chibby 11-mer = molecular target: T10, Chibby 11-mer; experiment: ITC
14-3-3ζ K49A [4] = molecular target: T11, 14-3-3ζ K49A; experiment: ITC; duplicate set of titrations; 5 uL aliquots of ~1-2 mM peptide titrated into the 1.4 mL cell with ~100-200 uM 14-3-3ζ; 25 °C; 50 mM sodium phosphate, 100 mM NaCl, 1 mM DTT, pH 6.8; one-site model; n per 14-3-3 monomer; conditions: both partners purified
14-3-3ζΔC12 [5] = molecular target: T12, 14-3-3ζΔC12; experiment: as above; conditions: both partners purified
[6] = molecular target: the molecule itself; experiment: crystal structure; 14-3-3ζ (10 mg/mL) co-crystallised with the phosphorylated Cby 18-mer (protein:peptide 1:4), 20 mM Tris pH 7.5, 100 mM NaCl; reservoir 200 mM NH4HCO2, 16-20% PEG 3350; 4°C; 2.41 Å

Binder: B1
Kd (14-3-3ζΔC12 [1]): 14.9 µM | dH (14-3-3ζΔC12 [1]): -2.08 ± 0.03 kcal/mol | stoichiometry N (14-3-3ζΔC12 [1]): 0.99

Binder: B2
Kd [2]: 4.6 µM | dH [2]: -4.35 ± 0.05 kcal/mol | stoichiometry N [2]: 0.96 | Kd (14-3-3ζ K49A [3]): 3.8 µM | dH (14-3-3ζ K49A [3]): -4.16 ± 0.05 kcal/mol | stoichiometry N (14-3-3ζ K49A [3]): 1.01 | Kd (14-3-3ζΔC12 [1]): 6.8 µM | dH (14-3-3ζΔC12 [1]): -3.35 ± 0.06 kcal/mol | stoichiometry N (14-3-3ζΔC12 [1]): 1.04

Binder: B3
Kd [2]: 0.36 µM | dH [2]: -8.03 ± 0.02 kcal/mol | stoichiometry N [2]: 1.05 | Kd (14-3-3ζ K49A [3]): 1.9 µM | dH (14-3-3ζ K49A [3]): -7.13 ± 0.03 kcal/mol | stoichiometry N (14-3-3ζ K49A [3]): 1.07

Binder: B4
Kd (14-3-3ζ): 1.3 µM | stoichiometry N (14-3-3ζ): 1.02

Binder: B5
Kd (14-3-3ζ): 47.6 µM | stoichiometry N (14-3-3ζ): 0.94

Binder: B6
Kd (14-3-3ζ): 3.2 µM | stoichiometry N (14-3-3ζ): 1.02

Binder: B7
Kd (Chibby 7-mer S22P): ~3 µM | Kd (Chibby 18-mer): ~5 µM | Kd (Chibby 13-mer S22P): ~1 µM | Kd (Chibby 7-mer): ~44 µM | Kd (Chibby 13-mer): ~15 µM | Kd (Chibby 18-mer L24A): ~21 µM | Kd (Chibby 11-mer): ~18 µM

Binder: B8
Kd (14-3-3ζ): 17.5 µM | stoichiometry N (14-3-3ζ): 0.96

Binder: B9
Kd (14-3-3ζ): 4.9 µM | stoichiometry N (14-3-3ζ): 0.94 | Kd (14-3-3ζ K49A [4]): 5.5 µM | stoichiometry N (14-3-3ζ K49A [4]): 1.07 | Kd (14-3-3ζΔC12 [5]): 8.5 µM | stoichiometry N (14-3-3ζΔC12 [5]): 1.02

Binder: B10
Kd (14-3-3ζ): 25 µM | stoichiometry N (14-3-3ζ): 1.05

Binder: B11
Kd (14-3-3ζ): 0.38 µM | stoichiometry N (14-3-3ζ): 1.08 | Kd (14-3-3ζ K49A [4]): 1.8 µM | stoichiometry N (14-3-3ζ K49A [4]): 0.97

Binder: B12
binding result [6]: binds

Binder: B13
Kd (14-3-3ζΔC12 [5]): 14.5 µM | stoichiometry N (14-3-3ζΔC12 [5]): 1.06
